{"source": "paper PMC3963902", "about": "(PLoS ONE, 2014)", "proteins": {"B1": {"name": "His-tagged, selenomethionine (Se-Met) labelled LpEst1 (enzyme, Lactobacillus plantarum WCFS1, UniProt Q88Y25 1-337, looked up)", "chain": "MPTINSIQTTVNGVVKIVKPFNNDIAGEQFDPHVLQTLTAFKQPAILENDLAALRSGSLTPAIADPVGDAVTVQSRNITALNRTVSVEWLTPQNVINHTVLVYFHGGAFYGGVPGNNTVLLKLVAAKSHCEILNVDYSLAPEAPAPAGILDGLAIFQYLEQRDAETMITVAGDSAGANVIMAATNLNQQLGSNRINQQLLLYPVTAPNADHAGPLWDLAAFPIIDSQRAILTNYHDLFRQLDSIMTDYYVPENFDSHSPLISPLHQENFTMTPPTTIMVGEFDPFRPQAWAYAQRLAAADTATTFIQYQGLNHAFAPLVDQYWQSQDVAQVMAAALI", "modifications": "selenomethionine (Se-Met labelled)", "notes": "carboxylesterase LpEst1, Lactobacillus plantarum WCFS1, UniProtKB/Swiss-Prot Q88Y25; 337 residues; Methionines replaced by selenomethionine; incorporation checked by mass spectrometry; also called Se-Met LpEst1; Se-Met labelled LpEst1 esterase"}, "B2": {"name": "LpEst1 Gln189Glu mutant (enzyme, Lactobacillus plantarum WCFS1, UniProt Q88Y25 1-337, looked up)", "chain": "MPTINSIQTTVNGVVKIVKPFNNDIAGEQFDPHVLQTLTAFKQPAILENDLAALRSGSLTPAIADPVGDAVTVQSRNITALNRTVSVEWLTPQNVINHTVLVYFHGGAFYGGVPGNNTVLLKLVAAKSHCEILNVDYSLAPEAPAPAGILDGLAIFQYLEQRDAETMITVAGDSAGANVIMAATNLNQELGSNRINQQLLLYPVTAPNADHAGPLWDLAAFPIIDSQRAILTNYHDLFRQLDSIMTDYYVPENFDSHSPLISPLHQENFTMTPPTTIMVGEFDPFRPQAWAYAQRLAAADTATTFIQYQGLNHAFAPLVDQYWQSQDVAQVMAAALI", "notes": "carboxylesterase LpEst1, Lactobacillus plantarum WCFS1, UniProtKB/Swiss-Prot Q88Y25; 337 residues; single point mutant Gln189Glu; Made from the wild-type vector with the mutagenic primers printed in the methods; source: recombinant, point mutant of pURI3-TEV-LpEst1; purified (IMAC on a His-Trap FF column plus size exclusion chromatography, last step in McIlvaine buffer pH 5.0)"}, "B3": {"name": "carboxylesterase LpEst1 from Lactobacillus plantarum WCFS1 (wild type, native) (enzyme, UniProt Q88Y25 1-337, looked up)", "chain": "MPTINSIQTTVNGVVKIVKPFNNDIAGEQFDPHVLQTLTAFKQPAILENDLAALRSGSLTPAIADPVGDAVTVQSRNITALNRTVSVEWLTPQNVINHTVLVYFHGGAFYGGVPGNNTVLLKLVAAKSHCEILNVDYSLAPEAPAPAGILDGLAIFQYLEQRDAETMITVAGDSAGANVIMAATNLNQQLGSNRINQQLLLYPVTAPNADHAGPLWDLAAFPIIDSQRAILTNYHDLFRQLDSIMTDYYVPENFDSHSPLISPLHQENFTMTPPTTIMVGEFDPFRPQAWAYAQRLAAADTATTFIQYQGLNHAFAPLVDQYWQSQDVAQVMAAALI", "notes": "carboxylesterase LpEst1, Lactobacillus plantarum WCFS1, UniProtKB/Swiss-Prot Q88Y25; 337 residues, about 36.7 kDa; complete protein molecules in the crystal model; The crystals were of His-tagged protein; also called native LpEst1; wild-type protein; source: recombinant, from the expression vector pURI3-TEV-LpEst1"}}, "key": {"[1]": {"biological_target": "the molecule itself", "test": "crystal structure; His-tagged Se-Met labelled LpEst1; 1 M sodium malonate, 0.5% (v/v) Jeffamine ED-2001, 100 mM HEPES pH 7.0, 5 mM DTT; space group I4, four molecules in the asymmetric unit; 2.05 A"}, "[2]": {"biological_target": "the molecule itself", "test": "AUC; sedimentation equilibrium at 12,000 and 18,000 rpm; Gln189Glu mutant 10 uM in McIlvaine buffer pH 5.0 (Na2PO4, citric acid); fit to an ideal single species"}, "[3]": {"biological_target": "the molecule itself", "test": "SEC; analytical gel filtration on Superdex 200 10/300 GL Tricorn; 20 mM Tris-HCl pH 8.0, 0.1 M NaCl, 5 mM DTT, 0.04% sodium azide; size from Kav against standards"}}}
{"protein": "B1", "values": [{"measurement": "binding result", "setting": "[1]", "value": "binds"}]}
{"protein": "B2", "values": [{"measurement": "stoichiometry N", "setting": "[2]", "value": 2}]}
{"protein": "B3", "values": [{"measurement": "stoichiometry N", "setting": "[3]", "value": 2}]}
